Key:
[1] = biological target: MazF9 toxin, (His)6MazF(FLAG)3 (Mycobacterium tuberculosis) (UniProt P71650); assay: MST
[2] = biological target: MazF6 toxin WT, purified (Mycobacterium tuberculosis) (UniProt P9WII2); assay: SEC-MALS
[3] = biological target: MazE9 antitoxin, full length, (His)6MazE(FLAG)3 (Mycobacterium tuberculosis) (UniProt P0CL61); assay: SEC-MALS
[4] = biological target: MazF9 toxin, (His)6MazF(FLAG)3 (Mycobacterium tuberculosis) (UniProt P71650); assay: SEC-MALS
[5] = biological target: MazF3 toxin, (His)6MazF(FLAG)3 (Mycobacterium tuberculosis) (UniProt P9WIH8); assay: MST
[6] = biological target: MazE3 antitoxin, full length, (His)6MazE(FLAG)3 (Mycobacterium tuberculosis) (UniProt O53451); assay: SEC-MALS
[7] = biological target: the molecule itself; assay: SEC-MALS
[8] = biological target: MazE3 library; assay: flow cytometry on cells

Sequence of MazF9 toxin, (His)6MazF(FLAG)3 (Mycobacterium tuberculosis) (P71650 whole entry): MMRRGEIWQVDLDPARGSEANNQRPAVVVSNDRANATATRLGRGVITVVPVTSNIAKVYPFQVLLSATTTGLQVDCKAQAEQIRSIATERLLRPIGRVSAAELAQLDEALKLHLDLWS

“C-terminal MazE9 peptide (residues 43-76) (from UniProt P0CL61 43-76)” gave a Kd [1] of 5.7 nM.

Work on “MazF6 toxin WT, purified (from UniProt P9WII2 1-114) (natural protein)” yielded a stoichiometry N [2] of 2.

For “MazE9 antitoxin, full length, (His)6MazE(FLAG)3 (from UniProt P0CL61 1-76) (natural protein)”, the Kd [1] was 8.9 nM and the stoichiometry N [3] was 2.

Molecule “MazF9 toxin, (His)6MazF(FLAG)3 (from UniProt P71650 1-118) (natural protein)” has a stoichiometry N [4] of 2.

Work on “C-terminal MazE3 peptide (residues 72-106) (from UniProt O53451 72-106)” yielded a Kd [5] of 299 nM and a Kd [1] of 200 nM.

“MazE3 antitoxin, full length, (His)6MazE(FLAG)3 (from UniProt O53451 1-106) (natural protein)” showed a stoichiometry N [6] of 2.

B1: MazF3 toxin, (His)6MazF(FLAG)3 (natural protein)
chain: MRPIHIAQLDKARPVLILTREVVRPHLTNVTVAPITTTVRGLATEVPVDAVNGLNQPSVVSCDNTQTIPVCDLGRQIGYLLASQEPALAEAIGNAFDLDWVVA
For B1, the “stoichiometry N” value [7] was 2 and the Kd [8] was 1.7 nM.

Source: PMC9585320 (Frontiers in Molecular Biosciences, 2022)
